This experiment deals with human Fas (human) (UniProt P25445). In words: cell-based or functional assay.
UniProt P25445, sequence (P25445 26-335): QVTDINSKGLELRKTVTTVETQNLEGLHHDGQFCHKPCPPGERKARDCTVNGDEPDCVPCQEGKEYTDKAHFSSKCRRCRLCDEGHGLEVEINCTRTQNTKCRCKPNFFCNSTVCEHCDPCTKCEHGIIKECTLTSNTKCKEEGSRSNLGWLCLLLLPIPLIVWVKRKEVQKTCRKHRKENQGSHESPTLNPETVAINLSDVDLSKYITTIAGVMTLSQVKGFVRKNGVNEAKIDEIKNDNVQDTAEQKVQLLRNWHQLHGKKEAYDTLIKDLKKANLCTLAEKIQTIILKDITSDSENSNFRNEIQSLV

For “CH-11 agonist mAb to Fas (Panvera, Madison, WI) (antibody)”, the apoptotic nuclei (DAPI) in MCF7-Fas cells transfected with pMT2 alone, treated 9 h with CH-11 (500 ng/ml) plus cycloheximide was found to be 62%.

Source of the values: patent publication US6881402.
